From US20140302063A1 (SECRETARY OF STATE FOR HEALTH, published 2014)

Assays:
Assay in all cases: ELISA, inactivated virus
[1] = target: A/Vietnam/119/2004 (H5N1) inactivated viral preparation (Influenza A virus A/Vietnam/119/2004 (H5N1))
[2] = target: A/Duck/Sing-Q/97 (H5N3) inactivated viral preparation (Influenza A virus A/Duck/Sing-Q/97 (H5N3))
[3] = target: A/mallard/Eng/727/06 (H2N3) inactivated viral preparation (Influenza A virus A/mallard/Eng/727/06 (H2N3))
[4] = target: A/Indonesia/05/2005 (H5N1) inactivated viral preparation (Influenza A virus A/Indonesia/05/2005 (H5N1))
[5] = target: A/TurkTurk/1/2005 (H5N1) inactivated viral preparation (Influenza A virus A/turkey/Turkey/1/2005 (H5N1))
[6] = target: A/HongKong/1073/99 (H9N2) inactivated viral preparation (Influenza A virus A/HongKong/1073/99 (H9N2))
[7] = target: A/HongKong/213/2003 (H5N1) inactivated viral preparation (Influenza A virus A/HongKong/213/2003 (H5N1))

B1: R2b-E8 (VHH)
VHH: QVQLVESGGGLVQPGGSLRLSCAASGSFFSRYRMGWYRQAPGEQRELVAGITYDDSTNYAGSVKGRFTISRDNAKNTVHLQMNSLKPEDTAVYYCNLNPPGNLYWGQGTQVTVSS
Binder B1 has an EC50 [1] of 1.83 µg/mL, an EC50 [2] of 4.98 µg/mL and an EC50 [3] of 0.002 µg/mL. It also gave an EC50 [4] of 0.8 µg/mL, an EC50 [5] of 0.89 µg/mL and an EC50 [6] of 5.63 µg/mL. The EC50 [7] was 1.2 µg/mL.

B2: R1a-C5 (VHH)
VHH: QVQLVESGGGLVQPGGSLRLSCAASNDIFSFYTMGWYLQAIGKQREPVAVIGNGGNTNYAESVKGRFTISRDGAKNTAYLQMNSLKPEDTAVYYCMASGPGGLNVWGQGTQVTVSS
In the case of B2, the EC50 [1] is reported as 2.89 µg/mL, the EC50 [2] is reported as 7.57 µg/mL and the EC50 [3] is reported as 0.06 µg/mL. It also gave an EC50 [4] of 1.17 µg/mL, an EC50 [5] of 0.15 µg/mL and an EC50 [6] of 4.48 µg/mL. It also gave an EC50 [7] of 2.9 µg/mL.

B3: R1a-A5 (VHH)
VHH: QVQLVESGGGLVQPGGSLRLSCSASGSAVLFSTYPMSWYRQAPGKQRELVAAVTTDGSTSYADYAKGRFTISRDNAKNTVYLQMNSLKPEDTAVYYCNARDGFFNRYDYWGQGTQVTVSS
B3 showed an EC50 [1] of 0.25 µg/mL, an EC50 [2] of 0.27 µg/mL and an EC50 [3] of 0.006 µg/mL. For the same binder, the EC50 [4] was 0.15 µg/mL, the EC50 [5] was 0.13 µg/mL and the EC50 [7] was 0.27 µg/mL.

B4: R2a-G8 (VHH)
VHH: QLQLAESGGGLVQAGGSLRLSCAASGSTLNNNAIGWFRQAPGKEREGVSCMNSRDGTTNYADSVKGRFTISRDVAKNTVYLQMNSLKPEDTAVYFCAVKGFAPFLIGCPWGKAEYDYWGQGTQVTVSS
B4 gave an EC50 [1] of 3.36 µg/mL, an EC50 [2] of 9.67 µg/mL and an EC50 [3] of 2.5 µg/mL. The EC50 [4] was 5.7 µg/mL, the EC50 [5] was 1.93 µg/mL and the EC50 [7] was 6.2 µg/mL.

B5: R1a-B6 (VHH)
VHH: QVQLVESGGGLVQPGGSLRLSCAASGSFFSRYRMGWYRQAPGEQRELVASIAYDGSTSYADPVKGRFTISRDNANTVHLQMYSLKPDDTAVYYCNLDPPGILYWGQGTQVTVSS
In the case of B5, the EC50 [1] is reported as 0.82 µg/mL, the EC50 [2] is reported as 1.32 µg/mL and the EC50 [3] is reported as 0.102 µg/mL. For the same binder, the EC50 [4] was 0.42 µg/mL, the EC50 [5] was 0.44 µg/mL and the EC50 [6] was 2.3 µg/mL. The EC50 [7] was 0.37 µg/mL.

B6: R2b-D9 (VHH)
VHH: QVQLVESGGGLVQPGGSLRLSCLASGSAFSLYTMGWYRQAPGNQRELVAAITSGESTNYADSVKGRFTISRDNAKNTVYLQMNSLKPEDTAVYYCNADPLSTGWGQYSYWGQGTQVTVSS
B6 gave an EC50 [1] of 1.81 µg/mL, an EC50 [2] of 5.64 µg/mL and an EC50 [3] of 0.06 µg/mL. The EC50 [4] was 0.58 µg/mL, the EC50 [5] was 0.76 µg/mL and the EC50 [7] was 2.8 µg/mL.

B7: R1a-H6 (VHH)
VHH: QVQLVESGGGLVQAGDSLRLSCTASVLTFSLYRVGWFRQAPGKEREFVAAIDWGDGPTTYADSVKGRFTISRDNAERTAYLQINSLKPEDTAVYYCGAGNTGSSDRSSSYVHWGQGTQVTVSS
Binder B7 has an EC50 [6] of 5.7 µg/mL.
